Test results reported in patent publication US20230295343A1 (NINGBO COMGEN BIOTECH, published 2023).

Columns and labels:
human FXII = molecular target: T1, human FXII (human, UniProt P00748 20-615); assay: ELISA, plate coated with human FXII at 1 ug/mL, nanobody dilutions, anti-6xHis-HRP
T1 construct: Bought protein; also called factor XII; natural human FXII
T1 sequence (looked up): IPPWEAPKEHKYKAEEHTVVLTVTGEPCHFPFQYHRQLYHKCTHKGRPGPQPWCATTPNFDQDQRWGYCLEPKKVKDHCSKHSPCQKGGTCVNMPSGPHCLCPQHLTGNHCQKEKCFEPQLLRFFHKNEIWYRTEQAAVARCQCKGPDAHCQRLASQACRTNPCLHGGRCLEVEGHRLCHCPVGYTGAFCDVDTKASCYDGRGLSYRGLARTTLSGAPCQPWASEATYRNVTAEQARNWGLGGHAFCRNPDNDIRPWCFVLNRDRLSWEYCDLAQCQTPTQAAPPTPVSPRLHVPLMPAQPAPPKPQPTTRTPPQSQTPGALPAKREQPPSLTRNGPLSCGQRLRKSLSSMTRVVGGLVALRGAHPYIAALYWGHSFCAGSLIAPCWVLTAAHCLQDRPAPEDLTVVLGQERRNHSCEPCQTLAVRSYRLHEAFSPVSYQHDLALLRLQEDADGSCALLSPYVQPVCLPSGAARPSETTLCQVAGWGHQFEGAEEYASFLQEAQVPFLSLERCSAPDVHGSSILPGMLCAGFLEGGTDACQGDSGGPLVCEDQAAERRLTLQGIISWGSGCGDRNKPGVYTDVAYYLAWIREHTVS
Experimental: The titer detection method in Example 1 was as follows: An ELISA plate was coated with human FXII at a protein concentration of 1 μg/mL overnight at 4° C.; then the ELISA plate was washed with PBST buffer and blocked with 5% skimmed milk powder at room temperature for 2 h; the ELISA plate was washed with PBST buffer (which was prepared with 1 L of PBS and 500 μL of Tween 20), then nanobodies at different dilutions were added, and the ELISA plate was incubated for 2 h at room temperature; the ELISA plate was washed with PBST buffer, then an […] (Abcam) was added, and the ELISA plate was incubated for 1 h at room temperature in the dark; the ELISA plate was washed with PBST buffer, a tetramethylbenzidine (TMB) (R&D Systems) substrate solution was added, and a chromogenic reaction was conducted for 5 min to 10 min; and a stop solution (sulfuric acid with a concentration of 2 M) was added, and an OD value of each well was determined at 450 nm by a microplate reader.

[1] = molecular target: T2, biotinylated FXII protein (UniProt P00748 20-615, biotinylated (sites not given)); assay: BLI (Fortebio Octet), biotinylated FXII loaded on the biosensor, N4-38 at 50, 20 and 10 ug/mL, 37 C
T2 sequence (looked up): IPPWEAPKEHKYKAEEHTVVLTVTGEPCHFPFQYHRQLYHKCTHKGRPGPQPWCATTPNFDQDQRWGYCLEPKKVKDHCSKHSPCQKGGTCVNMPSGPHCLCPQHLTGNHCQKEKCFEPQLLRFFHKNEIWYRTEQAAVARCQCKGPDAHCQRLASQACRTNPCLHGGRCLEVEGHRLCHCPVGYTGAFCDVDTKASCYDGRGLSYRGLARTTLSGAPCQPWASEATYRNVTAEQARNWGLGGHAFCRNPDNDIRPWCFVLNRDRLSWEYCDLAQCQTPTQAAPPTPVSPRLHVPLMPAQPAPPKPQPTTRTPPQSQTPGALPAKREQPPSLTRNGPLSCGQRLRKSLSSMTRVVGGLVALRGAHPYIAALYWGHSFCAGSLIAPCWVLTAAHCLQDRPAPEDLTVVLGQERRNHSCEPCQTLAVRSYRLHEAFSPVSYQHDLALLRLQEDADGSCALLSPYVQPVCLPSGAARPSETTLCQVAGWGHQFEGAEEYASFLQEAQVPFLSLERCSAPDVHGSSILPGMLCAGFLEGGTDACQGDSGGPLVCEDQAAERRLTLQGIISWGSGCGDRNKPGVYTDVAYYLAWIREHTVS
Experimental: (1) A Fortebio Octet special solution M (a PBST solution including BSA with a mass fraction of 0.5%) was prepared, filtered through a 0.22 μm filter membrane, and stored at 4° C. for later use; (2) a biotinylated FXII protein was diluted to 10 μg/mL, a nanobody N4-38 was diluted to 50 μg/mL, 20 μg/mL, and 10 μg/mL, and resulting samples each were added; (3) a biosensor was placed in a corresponding clean well of a spare box, and […] of the Fortebio Octet special solution M was added to each well corresponding to the biosensor; (4) a program was set as follows: first stage Baseline: 60 s, second stage Loading: 200 s, third stage Baseline 2: 100 s, fourth stage Association: 300 s, fourth stage Dissociation: 300 s, and reaction temperature during the whole process: 37° C.; and (5) after a reaction was completed, data analysis was conducted by software.

B1: nanobody A5-8 (VHH)
VHH: QVQLVESGGGLAQVGGSLRLSCAASGSTFSFKSMGWYREAPGNQRELVAAISSKGIMTNSDSVKGRFTISRDNAKNTVDLHLNNLKPEDTAVYYCNVVEVGVGGLVNVYWGQGTQVTVSS
notes: not shown: 6xHis tag from vector PET26b
titer (human FXII): 220

B2: nanobody N4-38 (VHH)
VHH: QVQLVESGGGLVQAGGSLRLSCAASGRTGNAYRMGWFRQAPGKEREFVAAISWNGDSTNYADSVKGRFTISRDNAKNTVYLQMNSLKPEDTAVYYCAVVKGIGVPPNMYDYWGQGTQVTVSS
notes: Alpaca nanobody expressed in E. coli from PET26b; also called N38; N4-38 antibody
titer (human FXII): 220 | Kd [1]: 3.07 nM

B3: nanobody N4-44 (VHH)
VHH: QVQLVESGGGLVQAGGSLRLSCAASGSDFSINAMGWYRQAPGKERELVATISSGGSTYYADSVKGRFTISRDNAKNTLYLHMNTLKPEDTAMYYCAILKGATPGYWGQGTQVTVSS
notes: as for B1
titer (human FXII): 220
